{
  "source": "patent US6225451",
  "test_system": "T1, CHD1.ZnF3-8 (CHD1 zinc fingers 3 through 8) (Homo sapiens)",
  "T1 sequence": "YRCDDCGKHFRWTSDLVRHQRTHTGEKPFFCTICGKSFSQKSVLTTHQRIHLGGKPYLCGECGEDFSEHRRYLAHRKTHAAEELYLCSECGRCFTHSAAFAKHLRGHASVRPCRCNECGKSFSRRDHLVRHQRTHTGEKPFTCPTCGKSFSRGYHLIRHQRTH",
  "assay": "EMSA",
  "details": "apparent, upper limit from protein dilution; poly d(I:C) does not compete",
  "data": [
    {"substance": "ApoAIV promoter fragment -573 to -165", "values": [
      {"measurement": "Kd", "value": 10, "unit": "nM"}
    ]}
  ]
}
